Test [1] addresses Biotinylated human TNFR2 protein (human) (UniProt P20333). Kind of test: BLI.
In test [2] the target is human immunodeficiency virus 1 (HIV-1) (group M, subtype B, Isolate MN) gp120 Protein (HIV-1 (group M, subtype B, isolate MN)) (UniProt P05877). Kind of test: flow cytometry on cells.

recombinant TNFR2 protein (soluble, exogenous), sequence (P20333 23-257): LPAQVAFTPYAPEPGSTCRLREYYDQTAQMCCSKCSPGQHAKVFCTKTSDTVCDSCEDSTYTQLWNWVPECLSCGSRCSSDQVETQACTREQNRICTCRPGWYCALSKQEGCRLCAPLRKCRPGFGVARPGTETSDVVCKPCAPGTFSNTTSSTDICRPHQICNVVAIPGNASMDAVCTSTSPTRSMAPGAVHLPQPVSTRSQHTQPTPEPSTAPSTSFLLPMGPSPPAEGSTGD
Biotinylated human TNFR2 protein (human), sequence (P20333 23-257): as above

Substance “human immunodeficiency virus 1 (HIV-1) (group M, subtype B, Isolate MN) gp120 Protein (from UniProt P05877 30-513) (natural protein)” returned a Kd in test [1] of 86.5 nM.
In test [2], “recombinant TNFR2 protein (soluble, exogenous) (from UniProt P20333-1 23-257) (domain or fragment)” displayed an IC50 of 107 nM and a reduction in gp120 binding to Jurkat cells of 65%.

The values are drawn from PMC13137973.
